The text below walks through data of paper PMC8163975 (The Journal of Biological Chemistry, 2021).

As usually defined, the Kd is the concentration at which binding is half-saturated. A lower Kd goes with higher affinity.

Sequences and labels used below:
B2: RAP1B, mGppNHp-bound (natural protein, human, UniProt P61224 1-184, looked up)
chain: MREYKLVVLGSGGVGKSALTVQFVQGIFVEKYDPTIEDSYRKQVEVDAQQCMLEILDTAGTEQFTAMRDLYMKNGQGFALVYSITAQSTFNDLQDLREQILRVKDTDDVPMILVGNKCDLEDERVVGKEQGQNLARQWNNCAFLESSAKSKINVNEIFYDLVRQINRKTPVPGKARKKSSCQLL
notes: human RAP1B; Loaded with mGppNHp

Common to all, as to conditions: both partners purified
One test addresses T1, RRAS1, mGppNHp-bound (human, UniProt P10301 1-218).
T1 construct: human RRAS (RRAS1); Loaded with mGppNHp
T1 sequence (looked up): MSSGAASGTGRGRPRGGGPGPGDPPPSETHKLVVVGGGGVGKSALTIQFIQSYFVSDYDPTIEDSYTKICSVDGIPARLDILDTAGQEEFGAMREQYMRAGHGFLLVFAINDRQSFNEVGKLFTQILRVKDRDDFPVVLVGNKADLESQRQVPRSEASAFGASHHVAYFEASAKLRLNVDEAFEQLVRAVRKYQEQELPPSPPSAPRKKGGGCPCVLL
As to the kind of experiment: fluorescence polarisation; increasing concentrations of the RA/RB domain as MBP fusion protein (0.002-300 µM; or MBP alone) titrated to mGppNHp-bound RAS protein (1 µM); 30 mM Tris-HCl pH 7.4, 100 mM NaCl, 5 mM MgCl2, 3 mM DTT; Kd from a quadratic ligand-binding equation. Background: Fluorescence polarisation rises when a labelled molecule tumbles more slowly, as on binding a larger partner.

The test “RAP1B, mGppNHp-bound” addresses B2. The test is described as above.
The target of another test is T2, RAP2A, mGppNHp-bound (human, UniProt P10114 1-183).
T2 construct: human RAP2A; Loaded with mGppNHp
T2 sequence (looked up): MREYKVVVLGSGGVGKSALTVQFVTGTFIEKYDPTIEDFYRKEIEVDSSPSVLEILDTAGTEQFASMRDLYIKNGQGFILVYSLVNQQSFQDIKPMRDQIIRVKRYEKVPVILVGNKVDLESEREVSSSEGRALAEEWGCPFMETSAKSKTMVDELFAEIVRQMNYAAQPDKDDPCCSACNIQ
The test is described as above.

The next test addresses T3, RALA, mGppNHp-bound (human, UniProt P11233 1-206).
T3 construct: human RALA; Loaded with mGppNHp
T3 sequence (looked up): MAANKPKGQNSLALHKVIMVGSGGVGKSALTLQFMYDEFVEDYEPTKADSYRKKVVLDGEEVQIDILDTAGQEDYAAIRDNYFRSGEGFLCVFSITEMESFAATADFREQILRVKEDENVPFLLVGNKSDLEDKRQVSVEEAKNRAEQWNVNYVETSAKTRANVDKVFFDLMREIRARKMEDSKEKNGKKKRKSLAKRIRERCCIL
The test is described as above.

Another test addresses T4, RHEB1, mGppNHp-bound (human, UniProt Q15382 1-184).
T4 construct: human RHEB1; Loaded with mGppNHp; the discussion speaks of the RHEB G domain
The description is as above.

Test [1] deals with T5, CRAF RB domain, MBP fusion protein (human, UniProt P04049 51-131).
T5 construct: source: E. coli (pMal-c5X-His vector), purified as MBP fusion protein
The description is as above.

The next test has as its target T6, RIT1, mGppNHp-bound (human, UniProt Q92963 1-219).
T6 construct: human RIT1; Loaded with mGppNHp
Described as above.

The next test deals with T7, HRAS, mGppNHp-bound (human, UniProt P01112-1 1-189).
T7 construct: human HRAS; Loaded with mGppNHp, a fluorescent non-hydrolysable GTP analogue; That the RAS proteins were the pGEX (GST) constructs is surmised; also called HRAS1; p21HRAS
Described as above.

The target of another test is T8, RIT1•mGppNHp (human, UniProt Q92963 1-219).
T8 construct: human RIT1; Loaded with mGppNHp
T8 sequence (Q92963 whole entry): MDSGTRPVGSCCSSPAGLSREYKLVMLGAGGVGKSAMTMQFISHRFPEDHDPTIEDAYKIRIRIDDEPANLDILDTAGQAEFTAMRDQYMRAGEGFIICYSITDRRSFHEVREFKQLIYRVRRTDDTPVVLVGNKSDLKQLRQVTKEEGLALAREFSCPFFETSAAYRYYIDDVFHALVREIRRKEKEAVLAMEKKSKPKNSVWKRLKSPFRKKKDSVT
As to the kind of experiment: fluorescence polarisation; increasing concentrations of RA/RB domains as MBP fusions (0.002–300 μM) added to mGppNHp-bound RAS proteins (1 μM); 30 mM Tris-HCl pH 7.4, 100 mM NaCl, 5 mM MgCl2, 3 mM DTT; quadratic ligand-binding equation.

T4 sequence (Q15382 whole entry): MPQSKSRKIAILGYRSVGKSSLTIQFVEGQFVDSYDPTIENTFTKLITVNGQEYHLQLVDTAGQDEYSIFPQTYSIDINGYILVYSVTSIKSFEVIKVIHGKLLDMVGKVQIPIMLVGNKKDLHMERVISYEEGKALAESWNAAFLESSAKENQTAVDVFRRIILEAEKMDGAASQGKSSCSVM
T6 sequence (Q92963 whole entry): as the sequence (Q92963 whole entry) above

B1: RASSF2 RA domain, MBP fusion protein (domain or fragment, human, UniProt P50749 176-264, looked up)
chain: YNHKTSVFTPAYGSVTNVRINSTMTTPQVLKLLLNKFKIENSAEEFALYVVHTSGEKQKLKATDYPLIARILQGPCEQISKVFLMEKDQ
notes: RASSF2 RA domain, aa 176-264 of P50749
Take B1: the Kd turned out to be 122 µM with RRAS1, mGppNHp-bound; 67 µM in the test with RAP1B, mGppNHp-bound; 47 µM in the test with RAP2A, mGppNHp-bound; 167 µM with RALA, mGppNHp-bound; 44 µM in the test with RHEB1, mGppNHp-bound.
In the case of B2, binding in [1] was characterised by a dissociation constant (Kd) of 30 µM.

B3: RASSF8 RA domain, MBP fusion protein (domain or fragment, human, UniProt Q8NHQ8 1-82, looked up)
chain: MELKVWVDGVQRIVCGVTEVTTCQEVVIALAQAIGRTGRYTLIEKWRDTERHLAPHENPIISLNKWGQYASDVQLILRRTGP
notes: RASSF8 RA domain, aa 1-82 of Q8NHQ8
With B3, the dissociation constant (Kd) with RRAS1, mGppNHp-bound turned out to be 114 µM; in the test with RAP1B, mGppNHp-bound, 66 µM; in the test with RAP2A, mGppNHp-bound, 67 µM; in the test with RALA, mGppNHp-bound, 115 µM; with RHEB1, mGppNHp-bound it was 102 µM; in the test with RIT1, mGppNHp-bound, 76 µM.

B4: RASSF5 RA domain, MBP fusion protein (domain or fragment, UniProt Q5EBH1 200-358, looked up)
chain: PPTIQEIKQKIDSYNSREKHCLGMKLSEDGTYTGFIKVHLKLRRPVTVPAGIRPQSIYDAIKEVNPAATTDKRTSFYLPLDAIKQLHISSTTTVSEVIQGLLKKFMVVDNPQKFALFKRIHKDGQVLFQKLSIADYPLYLRLLAGPDTDVLSFVLKENE
notes: RASSF5 RA domain, aa 200-358 of Q5EBH1 as the methods print it; also called NORE1; RAPL
Regarding B4, the Kd in the test with RRAS1, mGppNHp-bound turned out to be 56 µM; with RAP1B, mGppNHp-bound, 4 µM; with RAP2A, mGppNHp-bound, 2 µM; in the test with RALA, mGppNHp-bound, 49 µM; with RHEB1, mGppNHp-bound, 46 µM.

B5: RASSF3 RA domain, MBP fusion protein (domain or fragment, human, UniProt Q86WH2 79-187, looked up)
chain: YTGFIKVQMELCKPPQTSPNSGKLSPSSNGCMNTLHISSTNTVGEVIEALLKKFLVTESPAKFALYKRCHREDQVYACKLSDREHPLYLRLVAGPRTDTLSFVLREHEI
notes: RASSF3 RA domain, aa 79-187 of Q86WH2
On to B5, for which the dissociation constant (Kd) with RRAS1, mGppNHp-bound came to 435 µM; with RAP1B, mGppNHp-bound, 116 µM; with RAP2A, mGppNHp-bound, 100 µM; in the test with RHEB1, mGppNHp-bound it was 64 µM.

B6: RASSF6 RA domain, MBP fusion protein (domain or fragment, human, UniProt Q6ZTQ3 218-306, looked up)
chain: YNHETSIFIPAFESETKVRVNSNMRTEEVIKQLLQKFKIENSPQDFALHIIFATGEQRRLKKTDIPLLQRLLQGPSEKNARIFLMDKDA
notes: RASSF6 RA domain, aa 218-306 of Q6ZTQ3
Take B6: the dissociation constant (Kd) with HRAS, mGppNHp-bound came out at 91 µM; with RRAS1, mGppNHp-bound, 112 µM; with RAP1B, mGppNHp-bound it was 65 µM; in the test with RAP2A, mGppNHp-bound it was 53 µM; with RHEB1, mGppNHp-bound, 56 µM; with RIT1, mGppNHp-bound, 98 µM.

B7: RASSF4 RA domain, MBP fusion protein (domain or fragment, human, UniProt Q9H2L5 174-262, looked up)
chain: YNHKTSVFTPAYGSVTNVRVNSTMTTLQVLTLLLNKFRVEDGPSEFALYIVHESGERTKLKDCEYPLISRILHGPCEKIARIFLMEADL
notes: RASSF4 RA domain, aa 174-262 of Q9H2L5
Turning to B7, the Kd in the test with RAP1B, mGppNHp-bound was 101 µM; with RAP2A, mGppNHp-bound, 88 µM; in the test with RALA, mGppNHp-bound, 191 µM; in the test with RHEB1, mGppNHp-bound, 47 µM; with RIT1, mGppNHp-bound, 58 µM.

B8: RASSF7 RA domain, MBP fusion protein (domain or fragment, human, UniProt Q02833 6-89, looked up)
chain: AAMELKVWVDGIQRVVCGVSEQTTCQEVVIALAQAIGQTGRFVLVQRLREKERQLLPQECPVGAQATCGQFASDVQFVLRRTGP
notes: RASSF7 RA domain, aa 6-89 of Q02833
In the case of B8, the Kd with RRAS1, mGppNHp-bound came to 30 µM; with RAP1B, mGppNHp-bound, 72 µM; with RAP2A, mGppNHp-bound, 68 µM; with RALA, mGppNHp-bound, 101 µM; with RHEB1, mGppNHp-bound, 76 µM.

B9: RASSF7 RA domain, His-tagged MBP fusion (domain or fragment, human, UniProt Q02833 6-89, looked up)
chain: AAMELKVWVDGIQRVVCGVSEQTTCQEVVIALAQAIGQTGRFVLVQRLREKERQLLPQECPVGAQATCGQFASDVQFVLRRTGP
notes: RASSF7 RAS association (RA) domain, aa 6–89 of Q02833; Cloned into pMal-c5X-His; Used in fluorescence polarisation and, coupled to Ni-NTA beads, in the pull-down; source: E. coli, purified (Ni-NTA)
B9 displayed a dissociation constant Kd with RIT1•mGppNHp of 34 µM.

B10: RASSF9 RA domain, MBP fusion protein (domain or fragment, human, UniProt O75901 25-119, looked up)
chain: EEKEIVVWVCQEEKLVCGLTKRTTSADVIQALLEEHEATFGEKRFLLGKPSDYCIIEKWRGSERVLPPLTRILKLWKAWGDEQPNMQFVLVKADA
notes: RASSF9 RA domain, aa 25-119 of O75901
For the molecule B10, the Kd in the test with RAP1B, mGppNHp-bound came out at 74 µM; in the test with RAP2A, mGppNHp-bound it was 66 µM; with RHEB1, mGppNHp-bound, 143 µM.

B11: RASSF9 RA domain, His-tagged MBP fusion (domain or fragment, human, UniProt O75901 25-119, looked up)
chain: EEKEIVVWVCQEEKLVCGLTKRTTSADVIQALLEEHEATFGEKRFLLGKPSDYCIIEKWRGSERVLPPLTRILKLWKAWGDEQPNMQFVLVKADA
notes: RASSF9 RAS association (RA) domain, aa 25–119 of O75901; Cloned into pMal-c5X-His; Used in fluorescence polarisation and, coupled to Ni-NTA beads, in the pull-down; source: E. coli, purified (Ni-NTA)
As for B11, in the test with RIT1•mGppNHp, the affinity, expressed as Kd, was 27 µM.

B12: RASSF10 RA domain, MBP fusion protein (domain or fragment, human, UniProt A6NK89 4-133, looked up)
chain: SEKKISVWICQEEKLVSGLSRRTTCSDVVRVLLEDGCRRRRRQRRSRRLGSAGDPHGPGELPEPPNEDDEDDDEALPQGMLCGPPQCYCIVEKWRGFERILPNKTRILRLWAAWGEEQENVRFVLVRSEA
notes: RASSF10 RA domain, aa 4-133 of A6NK89
Consider B12, for which the equilibrium dissociation constant (Kd) with RRAS1, mGppNHp-bound stood at 99 µM; with RAP1B, mGppNHp-bound it was 73 µM; with RAP2A, mGppNHp-bound, 67 µM; in the test with RHEB1, mGppNHp-bound, 150 µM; with RIT1, mGppNHp-bound, 55 µM.

B13: RASSF1 RA domain, MBP fusion protein (domain or fragment, human, UniProt Q9NS23 194-288, looked up)
chain: RGPGRGTSVRRRTSFYLPKDAVKHLHVLSRTRAREVIEALLRKFLVVDDPRKFALFERAERHGQVYLRKLLDDEQPLRLRLLAGPSDKALSFVLK
notes: RASSF1 RA domain, aa 194-288 of Q9NS23
Turning to B13, the equilibrium dissociation constant (Kd) amounted to 33 µM with RRAS1, mGppNHp-bound; 26 µM with RAP1B, mGppNHp-bound; 22 µM with RAP2A, mGppNHp-bound; 18 µM with RALA, mGppNHp-bound; 37 µM with RHEB1, mGppNHp-bound; 136 µM with RIT1, mGppNHp-bound.
